Data reported in article PMC4457900, “Preclinical Pharmacokinetic Studies of the Tritium Labelled D-Enantiomeric Peptide D3 Developed for the Treatment of Alzheimer´s Disease” (PLoS ONE, 2015).
pKd: −log10 of the molar value. “Also recorded” adds a separate entry of the source.

Legend:
[1] = biological target: T1, human serum albumin (HSA) (Homo sapiens, UniProt P02768); assay: Plasma protein binding, TRANSIL XL kit, HSA; assay type: in vitro ADME; conditions: 5 μM D3 (with 3H-D3) in PBS, LSC of supernatant, above detection limit of the kit, n = 2
T1 construct: purchased Sovicell GmbH, Leipzig, Germany
Procedure: Plasma protein binding was estimated by incubation of D3 with varying concentrations of protein using TRANSIL^XL binding kits (Sovicell GmbH, Leipzig, Germany). KD values were determined by titrating a constant drug concentration against different concentrations of human serum albumin (HSA) and α1-acid glycoprotein (AGP). Experiments were performed as recommended for the kit. To obtain the desired D3 stock solution of 80 μM, non-radioactively labelled D3 was dissolved in PBS and 5% ^3H-labelled D3 solution was added for detection purposes. A final concentration of 5 μM D3 was applied in the assay. After incubation and centrifugation 15 μl supernatant were taken and scintillation cocktail was added. This was done in triplicate. Radioactivity was then quantified using liquid scintillation counting. After measuring the disintegrations per minute (dpm) of the supernatant containing the unbound peptide, the D3 fraction bound to the titrated protein was calculated and plotted against the protein concentrations. […]
For bioavailability determination, the unbound fraction of D3 (fu) was calculated using the equation below: fu=100*CD3−KD−Cphysiol/2+KD*CD3+(CD3−KD−Cphysiol/2)^2/CD3 (1) For very low D3 concentrations in blood (CD3), Eq (1) can be simplified by Eq (2), where the unbound fraction of D3 can be calculated independently of the applied D3 concentration. […]

[2] = Proteolytic stability in mouse plasma (TLC, autoradiography); assay type: in vitro ADME; conditions: freshly prepared mouse plasma, 37°C, 1 μCi (approx. 0.08–0.8 μg) peptide with 1 μl plasma, D3 up to 2 days, L-form 0 and 60 min, 3H-autoradiography
Procedure: In order to study the proteolytic stability of peptides in biological extracts, tritium labelled peptides were incubated with liver microsomes (pooled from mouse (CD-1), Sigma-Aldrich), freshly prepared mouse plasma or extracts of brain, liver and kidney at 37°C for different time periods (from 0 min to 2 days). 1 μCi (approx. 0.08–0.8 μg) radioactive labelled peptide was mixed with 1 μl microsomes stock solution, plasma or organ extracts, respectively (in great excess to peptide). Mixtures containing tritium-labelled peptides were applied onto HPTLC Silica Gel 60 plates (OMNILAB, Essen, Germany) for thin layer chromatography (TLC) with a mobile solvent (2-Butanol/Pyridine/Ammonia(28%)/Water(39/34/10/26)). After development, a phosphor imaging plate for ^3H-autoradiography (FUJIFILM, Tokyo, Japan) was exposed to the TLC plates for 3 days. Images were acquired with a BAS reader and AIDA software (Raytest, Freiburg, Germany). Retardation factor (Rf) of each substance was defined as the ratio of the migration distance of the centre of a separated spot to the migration distance of the solvent front.

Row | Substance | pKd [1] | proteolytic degradation in plasma [2]
1 | D3: fully D-enantiomeric peptide identified by mirror-image phage display for binding to Aβ (1–42) (RPRTRLHTHRNR; all residues are D-amino acids (rprtrlhthrnr); tracer form carries 4,5-3H-D-Leu at position 6) | < 2.85 | 
2 | RPRTR-(4,5-^3H-Leu)-HTHRNR [3H-(L)-D3, tritium labelled L-form enantiomer of D3, RPRTR-(4,5-3H-Leu)-HTHRNR] |  | significant degradation already after 60 min; also recorded: Obvious proteolytic degradation
